Laboratory results reported in the supplement of paper PMC9732359.
± gives the uncertainty stated by the source.

Experiment: protein stability index of a GFP-peptide fusion (yeast GPS) (PSI 1-4); higher = more stable; sorted into four equal gates, so the index is relative within each strain
How it was run: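 Tiled 17-residue yeast protein peptides were fused downstream of GFP in a plasmid that also expresses Cherry, and the pooled library was carried in yeast. Mid-log cultures in leucine-free medium were sorted into four equal gates by GFP/Cherry fluorescence ratio, and plasmids from each gate were PCR-amplified and Illumina-sequenced, with reads assigned to strains by barcodes. The protein stability index for each peptide was each gate's read frequency times its gate number, summed.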

EILVLYNVCDTSKSLVK [SIN4]
protein stability index (doa10∆): 2.3 ± 0.05
protein stability index (pdr5∆): 2.88 ± 0.046
protein stability index (san1∆): 2.56 ± 0.058
protein stability index (ubr1∆): 2.97 ± 0.057

NIQGITKPAIRRLARRG [HHF1]
protein stability index (doa10∆): 3.27 ± 0.1
protein stability index (pdr5∆): 3.24 ± 0.093
protein stability index (san1∆): 2.89 ± 0.092
protein stability index (ubr1∆): 3.35 ± 0.066

PGNGKHASENISLSFSR [SIR4]
protein stability index (doa10∆): 2.49 ± 0.081
protein stability index (pdr5∆): 2.88 ± 0.062
protein stability index (san1∆): 2.97 ± 0.061
protein stability index (ubr1∆): 3.05 ± 0.058

DNISSFHSAVENLVQGN [YCG1]
protein stability index (doa10∆): 3.26 ± 0.08
protein stability index (pdr5∆): 3 ± 0.064
protein stability index (san1∆): 3.17 ± 0.067
protein stability index (ubr1∆): 3.31 ± 0.11

YVYRASKEVRGSKIRVM [RPL33A]
protein stability index (doa10∆): 2.75 ± 0.063
protein stability index (pdr5∆): 2.81 ± 0.086
protein stability index (san1∆): 2.5 ± 0.064
protein stability index (ubr1∆): 2.88 ± 0.049

TSEEQTKFLAKNGVIPE [SWP82]
protein stability index (doa10∆): 3.71 ± 0.26
protein stability index (pdr5∆): 3.6 ± 0.23
protein stability index (ubr1∆): 3.3 ± 0.098

KLVTYIVKFKQKEEGRS [YLR335W/NUP2]
protein stability index (doa10∆): 3.1 ± 0.06
protein stability index (pdr5∆): 3.1 ± 0.067
protein stability index (san1∆): 3.33 ± 0.044
protein stability index (ubr1∆): 3.34 ± 0.051

EIILKLCRNPLTSGLLY [YJL039C/NUP192]
protein stability index (doa10∆): 2.21 ± 0.069
protein stability index (pdr5∆): 1.84 ± 0.07
protein stability index (san1∆): 1.22 ± 0.16
protein stability index (ubr1∆): 1.17 ± 0.046

IPMSKTIKDLVGGKSTV [FAS2]
protein stability index (doa10∆): 2.96 ± 0.11
protein stability index (pdr5∆): 2.8 ± 0.089
protein stability index (san1∆): 2.85 ± 0.072
protein stability index (ubr1∆): 3.04 ± 0.06

MREITETIAEAKKKVLD [RPO21]
protein stability index (doa10∆): 3.5 ± 0.13
protein stability index (pdr5∆): 3.42 ± 0.09
protein stability index (san1∆): 3.42 ± 0.037
protein stability index (ubr1∆): 3.24 ± 0.091

VEISLVNGAKNLVVSGP [FAS1]
protein stability index (doa10∆): 2.76 ± 0.15
protein stability index (pdr5∆): 2.6 ± 0.1
protein stability index (san1∆): 2.3 ± 0.1
protein stability index (ubr1∆): 2.51 ± 0.21

RLTFKPWVVYLQILAML [YMR129W/POM152]
protein stability index (doa10∆): 1.23 ± 0.07
protein stability index (pdr5∆): 1.22 ± 0.06
protein stability index (san1∆): 1.1 ± 0.11
protein stability index (ubr1∆): 1.05 ± 0.049

IDFTLLNRLLRLIVDPN [PRP8]
protein stability index (doa10∆): 1.85 ± 0.059
protein stability index (pdr5∆): 1.88 ± 0.058
protein stability index (san1∆): 1.84 ± 0.071
protein stability index (ubr1∆): 1.73 ± 0.051

LTHVDLIEKFLRYNPLE [RPB10]
protein stability index (doa10∆): 2.91 ± 0.14
protein stability index (pdr5∆): 3.29 ± 0.12
protein stability index (san1∆): 3.23 ± 0.071
protein stability index (ubr1∆): 3.12 ± 0.04

KDIFRYMQRTVEEAHDF [RPB2]
protein stability index (doa10∆): 2.24 ± 0.075
protein stability index (pdr5∆): 1.45 ± 0.046
protein stability index (san1∆): 1.91 ± 0.12
protein stability index (ubr1∆): 1.3 ± 0.045

TQTYMQMIELNRQICLV [GRR1]
protein stability index (doa10∆): 2.35 ± 0.13
protein stability index (pdr5∆): 1.44 ± 0.073
protein stability index (san1∆): 1.35 ± 0.19
protein stability index (ubr1∆): 1.25 ± 0.047

DSMKYTISSLFVQLCEM [RPC82]
protein stability index (doa10∆): 1.86 ± 0.044
protein stability index (pdr5∆): 2.26 ± 0.042
protein stability index (san1∆): 2.15 ± 0.062
protein stability index (ubr1∆): 2.17 ± 0.043

PDPRSTVIPEDEEIIQL [RPO21]
protein stability index (doa10∆): 2.65 ± 0.081
protein stability index (pdr5∆): 2.75 ± 0.087
protein stability index (san1∆): 2.79 ± 0.077
protein stability index (ubr1∆): 2.66 ± 0.063

CANKYMTTVSGRDAFHL [RPL10]
protein stability index (doa10∆): 2.24 ± 0.24
protein stability index (pdr5∆): 2.64 ± 0.15
protein stability index (san1∆): 1.74 ± 0.2
protein stability index (ubr1∆): 1.92 ± 0.1

TKANDKNESATINEMMK [FAS2]
protein stability index (doa10∆): 3.1 ± 0.084
protein stability index (pdr5∆): 3.17 ± 0.094
protein stability index (san1∆): 3.03 ± 0.062
protein stability index (ubr1∆): 3.11 ± 0.057

GSSNKAVVQTVKGLLNT [YJL039C/NUP192]
protein stability index (doa10∆): 3.27 ± 0.14
protein stability index (pdr5∆): 3.13 ± 0.11
protein stability index (san1∆): 2.59 ± 0.11
protein stability index (ubr1∆): 3.07 ± 0.098

TMRRQKLTILQEGIEAI [RET1]
protein stability index (doa10∆): 2.39 ± 0.076
protein stability index (pdr5∆): 2.67 ± 0.051
protein stability index (san1∆): 2.8 ± 0.078
protein stability index (ubr1∆): 2.96 ± 0.062

LRLDGHTKSDERSELLR [SNF2]
protein stability index (doa10∆): 3.24 ± 0.081
protein stability index (pdr5∆): 3.18 ± 0.084
protein stability index (san1∆): 3.38 ± 0.079
protein stability index (ubr1∆): 3.33 ± 0.078

LAQTLKLWRKIARLYSC [RRI2]
protein stability index (doa10∆): 1.2 ± 0.07
protein stability index (pdr5∆): 1.21 ± 0.058
protein stability index (san1∆): 1.34 ± 0.096
protein stability index (ubr1∆): 1.26 ± 0.053

PPKHTELLLTTLSVSHG [SSN2]
protein stability index (doa10∆): 1.79 ± 0.038
protein stability index (pdr5∆): 1.8 ± 0.038
protein stability index (san1∆): 1.55 ± 0.07
protein stability index (ubr1∆): 1.61 ± 0.027

HKLDLAKRNLDANPSSQ [SMC2]
protein stability index (doa10∆): 1.86 ± 0.052
protein stability index (pdr5∆): 2.24 ± 0.065
protein stability index (san1∆): 1.67 ± 0.091
protein stability index (ubr1∆): 1.66 ± 0.035

VKSVNDPSQNRLTGSLL [RPC37]
protein stability index (doa10∆): 3.16 ± 0.089
protein stability index (pdr5∆): 3.48 ± 0.11
protein stability index (san1∆): 3.04 ± 0.11
protein stability index (ubr1∆): 3.08 ± 0.048
